Assay results from PMC9838835 (PLOS ONE, 2023).

Target: the molecule itself
Experiment: native gel or EMSA

B1: Human butyrylcholinesterase (enzyme, UniProt P06276 29-602, looked up)
chain: EDDIIIATKNGKVRGMNLTVFGGTVTAFLGIPYAQPPLGRLRFKKPQSLTKWSDIWNATKYANSCCQNIDQSFPGFHGSEMWNPNTDLSEDCLYLNVWIPAPKPKNATVLIWIYGGGFQTGTSSLHVYDGKFLARVERVIVVSMNYRVGALGFLALPGNPEAPGNMGLFDQQLALQWVQKNIAAFGGNPKSVTLFGESAGAASVSLHLLSPGSHSLFTRAILQSGSFNAPWAVTSLYEARNRTLNLAKLTGCSRENETEIIKCLRNKDPQEILLNEAFVVPYGTPLSVNFGPTVDGDFLTDMPDILLELGQFKKTQILVGVNKDEGTAFLVYGAPGFSKDNNSIITRKEFQEGLKIFFPGVSEFGKESILFHYTDWVDDQRPENYREALGDVVGDYNFICPALEFTKKFSEWGNNAFFYYFEHRSSKLPWPEWMGVMHGYEIEFVFGLPLERRDNYTKAEEILSRSIVKRWANFAKYGNPNETQNNSTSWPVFKSTEQKYLTLNTESTRIMTKLRAQQCRFWTSFFPKVLEMTGNIDEAEWEWKAGFHRWNNYMMDWKNQFNDYTSKKESCVGL
notes: also called BChE; C4 (tetramer)
stoichiometry N: 4
